Measurements as given in patent publication US20150239980A1 (NEOTOPE BOSCIENCES, published 2015).

T1: recombinant hMCAM-His (human, UniProt P43121 24-559)
T1 construct: not shown: His tag
T1 chain: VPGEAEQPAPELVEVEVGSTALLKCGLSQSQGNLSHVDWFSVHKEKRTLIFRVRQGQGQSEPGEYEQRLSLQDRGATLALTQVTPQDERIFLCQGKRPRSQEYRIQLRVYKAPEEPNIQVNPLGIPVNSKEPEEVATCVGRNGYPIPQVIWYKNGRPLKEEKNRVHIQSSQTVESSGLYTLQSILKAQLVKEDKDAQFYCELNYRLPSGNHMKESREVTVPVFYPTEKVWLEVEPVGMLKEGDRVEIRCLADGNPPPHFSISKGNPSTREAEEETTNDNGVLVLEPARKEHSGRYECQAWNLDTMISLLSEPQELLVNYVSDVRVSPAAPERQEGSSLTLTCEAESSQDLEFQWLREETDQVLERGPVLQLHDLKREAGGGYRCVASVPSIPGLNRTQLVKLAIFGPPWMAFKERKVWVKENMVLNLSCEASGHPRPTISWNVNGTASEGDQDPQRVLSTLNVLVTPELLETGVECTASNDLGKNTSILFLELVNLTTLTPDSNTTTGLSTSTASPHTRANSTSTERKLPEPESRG

T2: human MCAM (melanoma cell adhesion molecule) expressed on transfected CHO cells (human, UniProt P43121 24-646)
T2 construct: also called hMCAM; CD146
T2 chain: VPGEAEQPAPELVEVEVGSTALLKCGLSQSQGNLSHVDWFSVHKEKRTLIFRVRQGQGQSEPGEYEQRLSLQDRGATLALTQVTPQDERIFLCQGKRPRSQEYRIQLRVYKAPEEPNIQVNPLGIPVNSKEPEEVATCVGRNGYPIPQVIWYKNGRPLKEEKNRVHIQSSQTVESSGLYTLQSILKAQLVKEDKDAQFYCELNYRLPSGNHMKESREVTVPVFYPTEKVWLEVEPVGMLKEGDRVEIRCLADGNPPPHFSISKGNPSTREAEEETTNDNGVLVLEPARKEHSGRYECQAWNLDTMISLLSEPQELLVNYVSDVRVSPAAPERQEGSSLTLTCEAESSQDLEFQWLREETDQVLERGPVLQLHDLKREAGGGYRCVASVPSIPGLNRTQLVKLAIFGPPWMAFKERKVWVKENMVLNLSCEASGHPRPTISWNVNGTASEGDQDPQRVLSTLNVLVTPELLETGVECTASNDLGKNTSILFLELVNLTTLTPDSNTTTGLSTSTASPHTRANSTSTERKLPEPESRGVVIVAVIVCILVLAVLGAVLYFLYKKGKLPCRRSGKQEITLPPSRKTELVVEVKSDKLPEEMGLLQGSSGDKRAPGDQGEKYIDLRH


What was measured:
[1] = biological target: T1, recombinant hMCAM-His; assay: summary of ForteBio, hMCAM-His; vs rodent 2120
Procedure: (§1) The affinities were measured using the ForteBio Octet Red. Anti-human Fc sensors were used to capture the humanized antibodies, and several concentrations of hMCAMHis analyte were used to determine the affinity using a 1:1 fitting model.

[2] = biological target: T1, recombinant hMCAM-His; assay: ForteBio Octet Red, hMCAM-His analyte; Forte column 1; vs rodent 2120
Procedure: as §1

[3] = biological target: T2, human MCAM (melanoma cell adhesion …); assay: laminin/FACS on hMCAM CHO cells, competitor laminin 411; Expt#1; vs rodent 2120
Procedure: (§2) Following incubation for 30-45 minutes, the cells were washed and anti-laminin conjugated to AF650 (NovusBio) was added to detect the bound laminin. The cells were run on a flow cytometer to measure the laminin binding signal.

[4] = biological target: T2, human MCAM (melanoma cell adhesion …); assay: laminin/FACS on hMCAM CHO cells, competitor laminin 411; Expt#2; vs rodent 2120
Procedure: as §2

[5] = biological target: T1, recombinant hMCAM-His; assay: competitive ELISA on hMCAM-His, competitor biotinylated rodent or chimeric 2120; vs rodent 2120
Procedure: (§3) ELISA plates were coated with recombinant hMCAM-His, and blocked with casein buffer to prevent non-specific binding. Biotinylated rodent or chimeric antibody was added at a subsaturating concentration, in the presence or absence of 3× increasing concentrations of unlabeled competitor (humanized antibody, rodent, or chimeric). After washing to remove unbound antibody, streptavidin HRP was added to allow detection of the biotinylated antibody. The ELISA was developed with TMB substrate and the OD450 was measured. The IC50 of the unlabeled competitor was determined using the GraphPad Prism5 software.

[6] = biological target: T1, recombinant hMCAM-His; assay: ForteBio Octet Red, hMCAM-His analyte; Forte column 1; vs rodent 2107
Procedure: as §1

[7] = biological target: T2, human MCAM (melanoma cell adhesion …); assay: laminin/FACS on hMCAM CHO cells, competitor laminin 411; Expt#1; vs rodent 2107
Procedure: as §2

[8] = biological target: T1, recombinant hMCAM-His; assay: competitive ELISA on hMCAM-His, competitor biotinylated rodent or chimeric 2107; vs rodent 2107
Procedure: as §3

[9] = biological target: T2, human MCAM (melanoma cell adhesion …); assay: laminin/FACS on hMCAM CHO cells, competitor laminin 411; Expt#2; reference row with 1.0 is chimeric 2107
Procedure: as §2

[10] = biological target: T1, recombinant hMCAM-His; assay: ForteBio Octet Red, hMCAM-His analyte; Forte column 2; vs rodent 2107
Procedure: as §1

Row | fold reduction in affinity as measured by ForteBio [1] | fold over rodent (Forte affinity) [2] | fold over rodent (blocking, laminin/FACS) [3] | fold over rodent (blocking, laminin/FACS) [4] | fold over rodent (competitive ELISA) [5] | fold over rodent (Forte affinity) [6] | fold over rodent (blocking, laminin/FACS) [7] | fold over rodent (competitive ELISA) [8] | fold over rodent (blocking, laminin/FACS) [9] | fold over rodent (Forte affinity) [10] | Binder
1 | > 5 fold | 8.8 fold | 2 fold | 3.5 fold | 3.1 fold | – | – | – | – | – | h2120_VH1 + h2120_VL1 (antibody, human IgG1, V domains shown) VH: QVTLKESGPVLVKPTETLTLTCTVSGFSLTSNGVSWVRQPPGKALEWIAAISSGGTTYYNSAFKSRLTISRDTSKSQVVLTMTNMDPVDTATYYCARRYGYGWYFDFWGQGTLVTVSS VL: DIQMTQSPSSLSASVGDRVTITCKASQNIYNSLAWYQQKPGKAPKVLIFNANSLQTGIPSRFSGSGSGTDFTLTISSLQPEDFATYYCQQFYSGYTFGQGTKLEIK
2 | > 5 fold | 10.8 fold | 4.6 fold | 12.6 fold | 3.1 fold | – | – | – | – | – | h2120_VH1 + h2120_VL2 (antibody, human IgG1, V domains shown) VH: QVTLKESGPVLVKPTETLTLTCTVSGFSLTSNGVSWVRQPPGKALEWIAAISSGGTTYYNSAFKSRLTISRDTSKSQVVLTMTNMDPVDTATYYCARRYGYGWYFDFWGQGTLVTVSS VL: DIQMTQSPSSLSASVGDRVTITCKASQNIYNSLAWYQQKPGKAPKVLIFNANSLQTGVPSRFSGSGSGTDFTLTISSLQPEDFATYYCQQFYSGYTFGQGTKLEIK
3 | > 5 fold | 17.4 fold | 3.8 fold | 5.6 fold | 5 fold | – | – | – | – | – | h2120_VH4 + h2120_VL3 (antibody, human IgG1, V domains shown) VH: QVTLKESGPVLVKPTETLTLTCTVSGFSLTSQGVSWVRQPPGKALEWIAAISSGGTTYYNSAFKSRLTISRDTSKSQVVLTMTNMDPVDTATYYCARRYGYGWYFDFWGQGTLVTVSS VL: DIQMTQSPSSLSASVGDRVTINCKASQNIYNSLAWYQQKPGKAPKVLIFNANSLQTGIPSRFSGSGSGTDFTLTISSLQPEDFATYYCQQFYSGYTFGQGTKLEIK
4 | – | – | – | – | – | 12.9 fold | 2.3 fold | 2.1 fold | 2.1 fold | – | h2107_VH1 + h2107_VL1 (antibody, human IgG1, V domains shown) VH: QVTLKESGPVLVKPTETLTLTCTVSGFSLTSNGVSWVRQPPGKALEWIAAISSGGSTYYNSAFKSRLTISRDTSKSQVVLTMTNMDPVDTATYYCARHRPFYFDYWGQGTLVTVSS VL: DIQMTQSPSSLSASVGDRVTITCKGSQNIYKSLAWFQQKPGKVPKLLIYDANSLQTGIPSRFSGSGSGTDFTLTISSLQPEDVATYYCQQYYSGYTFGGGTKVEIK
5 | – | – | – | – | – | 16.3 fold | 2.6 fold | 2.3 fold | 2 fold | – | h2107_VH1 + h2107_VL3 (antibody, human IgG1, V domains shown) VH: QVTLKESGPVLVKPTETLTLTCTVSGFSLTSNGVSWVRQPPGKALEWIAAISSGGSTYYNSAFKSRLTISRDTSKSQVVLTMTNMDPVDTATYYCARHRPFYFDYWGQGTLVTVSS VL: DIQMTQSPSSLSASVGDRVTINCKGSQNIYKSLAWFQQKPGKVPKLLIYDANSLQTGIPSRFSGSGSGTDFTLTISSLQPEDVATYYCQQYYSGYTFGGGTKVEIK
6 | – | – | – | – | – | 33.2 fold | – | 3.4 fold | – | – | h2107_VH5 + h2107_VL3 (antibody, human IgG1, V domains shown) VH: QVTLKESGPVLVKPTETLTLTCTVSGFSLTSQGVSWVRQPPGKALEWIAAISSGGSTYYNSAFKSRLTISPDTSKSQVVLTMTNMDPVDTATYYCARHRPFYFDYWGQGTLVTVSS VL: DIQMTQSPSSLSASVGDRVTINCKGSQNIYKSLAWFQQKPGKVPKLLIYDANSLQTGIPSRFSGSGSGTDFTLTISSLQPEDVATYYCQQYYSGYTFGGGTKVEIK
7 | – | – | – | – | – | 5.2 fold | 4.8 fold | 3.5 fold | 2.3 fold | 5.5 fold | h2107_VH6 + h2107_VL2 (antibody, human IgG1, V domains shown) VH: QVTLKESGPVLVKPTETLTLTCTVSGFSLTSNAVSWVRQPPGKALEWIAAISSGGSTYYNSAFKSRLTISRDTSKSQVVLTMTNMDPVDTATYYCARHRPFYFDYWGQGTLVTVSS VL: DIQMTQSPSSLSASVGDRVTITCKGSQNIYKSLAWFQLKPGKVPKLLIYDANSLQTGIPSRFSGSGSGTDFTLTISSLQPEDVATYYCQQYYSGYTFGGGTKVEIK
8 | – | – | – | – | – | 5.9 fold | 1.6 fold | 1.3 fold | 1.5 fold | 6 fold | h2107_VH5 + h2107_VL2 (antibody, human IgG1, V domains shown) VH: QVTLKESGPVLVKPTETLTLTCTVSGFSLTSQGVSWVRQPPGKALEWIAAISSGGSTYYNSAFKSRLTISPDTSKSQVVLTMTNMDPVDTATYYCARHRPFYFDYWGQGTLVTVSS VL: DIQMTQSPSSLSASVGDRVTITCKGSQNIYKSLAWFQLKPGKVPKLLIYDANSLQTGIPSRFSGSGSGTDFTLTISSLQPEDVATYYCQQYYSGYTFGGGTKVEIK
9 | – | – | – | – | – | 28.2 fold | – | 3.7 fold | – | – | h2107_VH5 + h2107_VL1 (antibody, human IgG1, V domains shown) VH: QVTLKESGPVLVKPTETLTLTCTVSGFSLTSQGVSWVRQPPGKALEWIAAISSGGSTYYNSAFKSRLTISPDTSKSQVVLTMTNMDPVDTATYYCARHRPFYFDYWGQGTLVTVSS VL: DIQMTQSPSSLSASVGDRVTITCKGSQNIYKSLAWFQQKPGKVPKLLIYDANSLQTGIPSRFSGSGSGTDFTLTISSLQPEDVATYYCQQYYSGYTFGGGTKVEIK
10 | – | – | – | – | – | 36.8 fold | – | 15.3 fold | – | – | h2107_VH6 + h2107_VL1 (antibody, human IgG1, V domains shown) VH: QVTLKESGPVLVKPTETLTLTCTVSGFSLTSNAVSWVRQPPGKALEWIAAISSGGSTYYNSAFKSRLTISRDTSKSQVVLTMTNMDPVDTATYYCARHRPFYFDYWGQGTLVTVSS VL: DIQMTQSPSSLSASVGDRVTITCKGSQNIYKSLAWFQQKPGKVPKLLIYDANSLQTGIPSRFSGSGSGTDFTLTISSLQPEDVATYYCQQYYSGYTFGGGTKVEIK
11 | – | – | – | – | – | 22.1 fold | – | 9.9 fold | – | – | h2107_VH6 + h2107_VL3 (antibody, human IgG1, V domains shown) VH: QVTLKESGPVLVKPTETLTLTCTVSGFSLTSNAVSWVRQPPGKALEWIAAISSGGSTYYNSAFKSRLTISRDTSKSQVVLTMTNMDPVDTATYYCARHRPFYFDYWGQGTLVTVSS VL: DIQMTQSPSSLSASVGDRVTINCKGSQNIYKSLAWFQQKPGKVPKLLIYDANSLQTGIPSRFSGSGSGTDFTLTISSLQPEDVATYYCQQYYSGYTFGGGTKVEIK
